According to publication PMC9289529, “Varicella‐Zoster virus ORF9 is an antagonist of the DNA sensor cGAS”:

Assays:
[1] = molecular target: T1, ORF9 (phase separation preparation) (Varicella-zoster virus, UniProt Q4JQW6 1-302); test: phase separation microscopy; no cGAS; smaller droplets than cGAS-DNA; Binding buffers for pull-down, EMSA and phase separation not in the material; phase separation tested at varied NaCl/KCl up to 300 mM or more; settings: protein: recombinant; tags: 6xHis-SUMO2 removed by SENP2; blunt
T1 sequence: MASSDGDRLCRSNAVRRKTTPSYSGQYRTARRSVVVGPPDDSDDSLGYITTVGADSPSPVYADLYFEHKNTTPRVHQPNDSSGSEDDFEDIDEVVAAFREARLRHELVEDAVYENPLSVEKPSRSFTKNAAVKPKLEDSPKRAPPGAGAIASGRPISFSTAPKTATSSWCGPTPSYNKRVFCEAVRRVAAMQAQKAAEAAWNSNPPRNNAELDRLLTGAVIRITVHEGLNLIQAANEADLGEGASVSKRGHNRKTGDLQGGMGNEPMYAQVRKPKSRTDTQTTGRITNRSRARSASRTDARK

[2] = molecular target: T2, hcGAS (human, UniProt Q8N884 1-522); test: phase separation microscopy; droplets sensitive to salt >250 mM; none at 300 mM NaCl/KCl; Binding buffers for pull-down, EMSA and phase separation not in the material; phase separation tested at varied NaCl/KCl up to 300 mM or more; settings: protein: recombinant; tags: 6xHis-SUMO2 construct (pET); blunt
T2 sequence (Q8N884 whole entry): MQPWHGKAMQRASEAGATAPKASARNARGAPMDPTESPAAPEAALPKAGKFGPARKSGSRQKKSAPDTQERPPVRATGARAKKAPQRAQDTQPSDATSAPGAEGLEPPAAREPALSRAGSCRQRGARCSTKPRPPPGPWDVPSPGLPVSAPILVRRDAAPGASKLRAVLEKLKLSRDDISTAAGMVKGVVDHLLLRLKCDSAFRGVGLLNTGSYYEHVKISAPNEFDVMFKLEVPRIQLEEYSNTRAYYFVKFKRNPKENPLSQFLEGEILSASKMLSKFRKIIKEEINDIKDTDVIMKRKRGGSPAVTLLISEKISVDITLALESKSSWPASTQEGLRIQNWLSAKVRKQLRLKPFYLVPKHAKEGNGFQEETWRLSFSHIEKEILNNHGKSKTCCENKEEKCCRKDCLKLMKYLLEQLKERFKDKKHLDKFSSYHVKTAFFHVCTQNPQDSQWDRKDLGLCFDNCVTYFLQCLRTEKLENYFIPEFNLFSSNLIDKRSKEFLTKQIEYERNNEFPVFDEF

[3] = molecular target: hcGAS;ORF9 (phase separation preparation) (human;Varicella-zoster virus, UniProt Q8N884;Q4JQW6 1-522;1-302, |); test: phase separation microscopy; 3-fold molar excess ORF9; larger droplets, also formed at 300 mM NaCl/KCl; Binding buffers for pull-down, EMSA and phase separation not in the material; phase separation tested at varied NaCl/KCl up to 300 mM or more; settings: protein: recombinant;recombinant; tags: 6xHis-SUMO2 construct (pET);6xHis-SUMO2 removed by SENP2; blunt
hcGAS;ORF9 (phase separation preparation), sequence (Q8N884 whole entry, one chain of several): as the sequence (Q8N884 whole entry) above

[4] = molecular target: T3, ORF9 (FLAG-ORF9) (Varicella-zoster virus, UniProt Q4JQW6 1-302); test: pull-down; settings: protein: recombinant; tags: N-terminal FLAG (GST cleaved by PreScission); label: biotin; blunt
T3 sequence: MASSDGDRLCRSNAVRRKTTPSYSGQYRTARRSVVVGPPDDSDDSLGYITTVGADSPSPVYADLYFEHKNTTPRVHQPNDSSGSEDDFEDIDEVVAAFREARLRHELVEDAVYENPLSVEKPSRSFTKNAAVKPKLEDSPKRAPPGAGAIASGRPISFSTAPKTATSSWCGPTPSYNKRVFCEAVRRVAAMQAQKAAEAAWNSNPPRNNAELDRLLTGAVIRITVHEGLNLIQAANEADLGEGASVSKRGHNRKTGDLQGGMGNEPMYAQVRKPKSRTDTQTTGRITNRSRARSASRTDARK

[5] = molecular target: cGAS (pull-down preparation) (human, UniProt Q8N884 1-522); test: pull-down; Binding buffers for pull-down, EMSA and phase separation not in the material; phase separation tested at varied NaCl/KCl up to 300 mM or more; settings: protein: recombinant; tags: GST cleaved by PreScission; label: biotin; blunt
cGAS (pull-down preparation), sequence (Q8N884 whole entry): as the sequence (Q8N884 whole entry) above

[6] = molecular target: T4, ORF9 (EMSA preparation) (Varicella-zoster virus, UniProt Q4JQW6 1-302); test: EMSA (agarose); Binding buffers for pull-down, EMSA and phase separation not in the material; phase separation tested at varied NaCl/KCl up to 300 mM or more; settings: protein: recombinant; tags: N-terminal FLAG (pET28a, Ni-NTA purified); blunt
T4 sequence: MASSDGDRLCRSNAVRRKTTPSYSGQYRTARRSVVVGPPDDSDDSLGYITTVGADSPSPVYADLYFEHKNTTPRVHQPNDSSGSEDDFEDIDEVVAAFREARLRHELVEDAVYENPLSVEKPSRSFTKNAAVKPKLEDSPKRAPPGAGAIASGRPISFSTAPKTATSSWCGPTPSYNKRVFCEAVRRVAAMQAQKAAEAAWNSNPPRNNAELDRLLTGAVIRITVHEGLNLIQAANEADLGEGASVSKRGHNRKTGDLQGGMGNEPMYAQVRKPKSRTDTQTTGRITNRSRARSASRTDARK

[7] = molecular target: T2, hcGAS; test: EMSA (agarose); high-molecular-weight complexes; Binding buffers for pull-down, EMSA and phase separation not in the material; phase separation tested at varied NaCl/KCl up to 300 mM or more; settings: protein: recombinant; tags: 6xHis-SUMO2 construct (pET); blunt
[8] = molecular target: hcGAS;ORF9 (EMSA preparation) (human;Varicella-zoster virus, UniProt Q8N884;Q4JQW6 1-522;1-302, |); test: EMSA (agarose); increasing ORF9 enlarges cGAS-DNA complexes; Binding buffers for pull-down, EMSA and phase separation not in the material; phase separation tested at varied NaCl/KCl up to 300 mM or more; settings: protein: recombinant;recombinant; tags: 6xHis-SUMO2 construct (pET);N-terminal FLAG (pET28a, Ni-NTA purified); blunt
hcGAS;ORF9 (EMSA preparation), sequence (Q8N884 whole entry, one chain of several): as the sequence (Q8N884 whole entry) above

B1: 100 bp ISD (dsDNA)
DNA 1: ACATCTAGTACATGTCTAGTCAGTATCTAGTGATTATCTAGACATACATCTAGTACATGTCTAGTCAGTATCTAGTGATTATCTAGACATGGACTCATCC
DNA 2: GGATGAGTCCATGTCTAGATAATCACTAGATACTGACTAGACATGTACTAGATGTATGTCTAGATAATCACTAGATACTGACTAGACATGTACTAGATGT
- binding result [1]: binds
- binding result [2]: binds
- binding result [3]: binds

B2: VACV-70mer-Biotin (dsDNA)
DNA 1: CCATCAGAAAGAGGTTTAATATTTTTGTGAGACCATCGAAGAGAGAAAGAGATAAAACTTTTTTACGACT
DNA 2: AGTCGTAAAAAAGTTTTATCTCTTTCTCTCTTCGATGGTCTCACAAAAATATTAAACCTCTTTCTGATGG
modifications: 3' TEG-biotin on forward strand
- binding result [4]: binds
- binding result [5]: binds

B3: VACV70mer dsDNA (dsDNA)
DNA 1: CCATCAGAAAGAGGTTTAATATTTTTGTGAGACCATCGAAGAGAGAAAGAGATAAAACTTTTTTACGACT
DNA 2: AGTCGTAAAAAAGTTTTATCTCTTTCTCTCTTCGATGGTCTCACAAAAATATTAAACCTCTTTCTGATGG
- binding result [6]: binds
- binding result [7]: binds
- binding result [8]: binds
